We go through seven molecules from PMC4357705, “Human Rap1 modulates TRF2 attraction to telomeric DNA”.

The Kd is the concentration at which binding is half-saturated.

Data set [1] has as its target Rap1 without His-tag, labelled with Alexa Fluor 488 (human) (UniProt Q9NYB0). Description: fluorescence polarisation; fluorescence anisotropy; TRF2noHis titrated into 100 nM Rap1noHis labelled with Alexa Fluor 488; 50 mM NaCl, 50 mM sodium phosphate pH 7.0, 25 C; concentration as TRF2 dimer. On the technique in general: Fluorescence polarisation rises when a labelled molecule tumbles more slowly, as on binding a larger partner.

Data set [2] has as its target Rap1, full-length, N-terminal His6-tag, labelled with Alexa Fluor 594 (human) (UniProt Q9NYB0). Description: fluorescence polarisation; fluorescence anisotropy; TRF2 titrated into 100 nM Rap1 labelled with Alexa Fluor 594; PBST (Phosphate Buffered Saline with Tween 20, ~140 mM NaCl); concentration as TRF2 dimer.
The target is the same in data set [3]. Description: fluorescence polarisation; fluorescence anisotropy; TRF2 titrated into 100 nM Rap1 labelled with Alexa Fluor 594; 50 mM NaCl, 50 mM sodium phosphate pH 7.0 with 1 mM DTT; concentration as TRF2 dimer.
The target in data set [4] is T1, Rap1 (human, UniProt Q9NYB0 1-399).
T1 sequence: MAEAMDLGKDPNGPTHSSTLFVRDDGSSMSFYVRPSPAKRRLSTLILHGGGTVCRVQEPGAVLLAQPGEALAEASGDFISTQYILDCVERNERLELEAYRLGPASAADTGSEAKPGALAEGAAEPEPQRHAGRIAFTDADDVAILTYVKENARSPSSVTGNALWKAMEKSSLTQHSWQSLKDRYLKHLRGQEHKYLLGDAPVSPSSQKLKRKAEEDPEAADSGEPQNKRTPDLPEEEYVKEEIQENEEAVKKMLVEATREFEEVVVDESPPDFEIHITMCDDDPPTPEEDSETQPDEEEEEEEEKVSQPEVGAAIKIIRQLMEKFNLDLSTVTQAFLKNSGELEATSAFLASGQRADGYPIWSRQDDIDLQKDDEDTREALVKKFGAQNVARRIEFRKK
Description: EMSA; up to Rap1:DNA 40:1; FA: 50 mM NaCl, 50 mM sodium phosphate pH 7.0, 25 °C, 7.5 nM DNA; EMSA: same buffer, 15 min on ice, 5% (or 4%) PAGE in 0.25x TBE at 4 °C; SPR: PBST. Particulars: protein: recombinant; tags: N-terminal His6; label: Alexa Fluor 488 at 3' end of one strand; blunt. For orientation: A gel shift assay detects complexes by their altered migration in electrophoresis.

For data set [5], the target named is T1, Rap1. Description: fluorescence anisotropy; FA: 50 mM NaCl, 50 mM sodium phosphate pH 7.0, 25 °C, 7.5 nM DNA; EMSA: same buffer, 15 min on ice, 5% (or 4%) PAGE in 0.25x TBE at 4 °C; SPR: PBST. The conditions noted are these: protein: recombinant; tags: N-terminal His6; label: Alexa Fluor 488 (FA); 5' biotin on S6 in SPR; 3' overhang 6 nt.
Data set [6] has as its target T1, Rap1. Description: SPR; PBST; FA: 50 mM NaCl, 50 mM sodium phosphate pH 7.0, 25 °C, 7.5 nM DNA; EMSA: same buffer, 15 min on ice, 5% (or 4%) PAGE in 0.25x TBE at 4 °C; SPR: PBST. Particulars: protein: recombinant; tags: N-terminal His6; label: 5' biotin on S6; blunt. On the technique in general: In SPR one partner is held on a chip, and binding of the other changes the refractive index at the surface.

Data set [7] has as its target Telomeric Repeat binding Factor 2 (TRF2), full-length, N-terminal His6-tag (human). Description: SPR; TRF2 immobilised by amine coupling on ProteOn GLC chip; Rap1 as analyte (methods: 80-5 nM; key of Figure S4A: 160-10 nM); PBST; 240 s injection at 100 ul/min, 1200 s dissociation; equilibrium responses fitted with a simple bimolecular equilibrium model.

For TRF2 without His-tag (natural protein), the Kd in data set [1] stood at 49 nM.
In the case of “Telomeric Repeat binding Factor 2 (TRF2), full-length, N-terminal His6-tag (natural protein)”, the figures for the dissociation constant Kd in data set [2] and in data set [3] were 64 nM and 44 nM, respectively.

B1: R5 (dsDNA)
DNA 1: GTTAGGGTTAGGGTTAGGGTTAGGGTTAGGGTTAG
DNA 2: CTAACCCTAACCCTAACCCTAACCCTAACCCTAAC
modifications: 3'-C6 aminoalkyl linker on one strand
Consider B1, for which the binding result with Rap1 [4] is “no binding”.

B2: Overhang_SR2 (mixed)
DNA 1: CTAACTTAGGGTTAGGGTTAGGGTTAG
DNA 2: CTAACCCTAACCCTAAGTTAG
On to B2, for which the binding result with Rap1 [5] is recorded as “no binding”.

B3: R2 (dsDNA)
DNA 1: GTTAGGGTTAGGGTTAG
DNA 2: CTAACCCTAACCCTAAC
modifications: 3'-C6 aminoalkyl linker on one strand
Regarding B3, in the data set with Rap1 [4], the binding result is recorded as “no binding”.

B4: SR2 (dsDNA)
DNA 1: CTAACTTAGGGTTAGGGTTAG
DNA 2: CTAACCCTAACCCTAAGTTAG
In the case of B4, in the data set with Rap1 [6], the binding result is given as “no binding”.

B5: Repressor activator protein 1 (Rap1), full-length, N-terminal His6-tag (natural protein)
chain: T1 sequence
In data set [7], B5 gave a Kd of 44 nM.
